Consider 5 molecules from publication PMC10063446 (Nature Immunology, 2023).

Assay [1] concerns the target T1, recombinant wild-type SARS-CoV-2 S trimer (ELISA antigen) (SARS-CoV-2 wild-type, UniProt P0DTC2).
T1 construct: also called S^WT trimer; recombinant S protein; source: bought: Sino Biological
As to the kind of experiment: ELISA. The following applies: one partner purified. (In general: ELISA stands for enzyme-linked immunosorbent assay.)

The target of assay [2] is SARS-CoV-2 RBD immobilised on the CM5 chip (SARS-CoV-2 wild-type (assumed)). As to the kind of experiment: SPR. To be noted: both partners purified.
Assay [3] addresses T2, wild-type SARS-CoV-2 S protein expressed on the surface of HEK 293T cells (SARS-CoV-2 wild-type (MN908947.3), UniProt P0DTC2).
T2 construct: also called S^WT protein
As to the kind of experiment: flow cytometry on cells. To be noted: one partner purified. (Flow cytometry measures light scatter and fluorescence of single cells or particles in a stream.)

Assay [4] has as its target T3, recombinant RBD protein of wild-type SARS-CoV-2 (ELISA antigen) (SARS-CoV-2 wild-type, UniProt P0DTC2).
T3 construct: No catalogue number printed
As to the kind of experiment: ELISA. The following applies: one partner purified.

B1: P2-1B1 (full IgG1) (antibody, V domains shown)
VH: QVQLVQSGAEVKRPGSSVKVSCKASGGTFSSYAISWVRQAPGQGPEWMGGIIPIFGTPHNAQKFQGRVTITADESTSTAYMELSSLRSEDTAMYYCSRTKGDILTGYTDYYFDSWGQGTLVTVSS
VL: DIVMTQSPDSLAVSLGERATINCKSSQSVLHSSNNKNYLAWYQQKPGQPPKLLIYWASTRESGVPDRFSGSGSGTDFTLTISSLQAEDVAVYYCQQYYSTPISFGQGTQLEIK
B1: the binding result in assay [1] is reported as “binds”.

B2: P5S-3B11 (full IgG1) (antibody, V domains shown)
VH: EVQLVESGGGLVQPGGSLRISCAASGLTFTGYWMNWVRQAPGKGLEWVANIKEDGSEKYYVDSVKGRFTISRDNAKNSLYLQMNSLRVEDTAVYYCARLRWLRGNFDHWGQGTLVTVSS
VL: NFMLTQPHSVSESPGKTVTISCTGSNGYIANNYVQWYQQRPGSVPTVVIYEDNQRPSGVPDRFSGSIDSSSNSASLIISGLKTEDEADYYCQSYDTPNVVFGGGTKLTVL
notes: IgG1; group 2
B2: the binding result in assay [2] is “binds”.

B3: P5-1C8 (full IgG1) (antibody, V domains shown)
VH: EVQLVESGGGLIQPGGSLRLSCAASEIIVSRNYMNWVRQAPGKGLEWVSVIYSGGSTFYADSVKGRFTISRDNSENTLYLQMNSLRAEDTAVYYCARGYGDYYFDYWGRGTLVTVSS
VL: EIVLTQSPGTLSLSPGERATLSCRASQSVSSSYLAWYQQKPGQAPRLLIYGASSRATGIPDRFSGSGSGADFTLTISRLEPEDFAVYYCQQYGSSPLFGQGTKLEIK
Turning to B3, the binding result in assay [1] is recorded as “binds”.

B4: P5-1H1 (full IgG1) (antibody, V domains shown)
VH: EVQLVESGGGLIQPGGSLRLSCAASGITVSSNYMTWVRQPPGKGLEWVSVIYSGGSTFYADPVKGRFTISRDNSRNTLYLQMNSLRAEDTAVYYCARDLQVYGMDVWGQGTTVTVSS
VL: DIQLTQSPSFLSASVGDRVTITCRASQGISNFLAWYQQKPGKAPKLLIYAASTLQGGVPSTFSGSGSGTEFTLTISSLQPEDFATYYCQHLNDYPLFGGGTRVEIK
For B4, the binding result in assay [1] and in assay [3] was “binds” in each case.

B5: P2S-2E9 (full IgG1) (antibody, V domains shown)
VH: QITLKESGPTLVKPTQTLTLTCTFSGFSLSTSGVGVGWIRQPPGKALEWLALIYWDDDKRYSPSLKSRLTITKDTSKNQVVLTMTNMDPVDTATYYCARHRIGYIFDYWGQGTLVTVSS
VL: QSALTQPASVSGSPGQSITISCTGTSSDVGDFNYVSWYQQHPGKAPKLMIYDVTKRPSGVSNRFSGSKSGNTASLTISGLQAEDEADYCCSSYTTSSISFGGGTKLTVL
With B5, the binding result in assay [2], in assay [4], in assay [1] and in assay [3] was “binds” in each case.
